Here are results for two molecules from paper PMC9373814, “3p-C-NETA: A versatile and effective chelator for development of Al^18F-labeled and therapeutic radiopharmaceuticals” (Theranostics, 2022).

For series [1], the system named is T1, SSTR2.
T1 construct: from tissue; host or cells: female Wistar rats in vivo (adrenals, pituitary, pancreas)
The series can be described thus: in vivo. Particulars: female, Wistar, rat, iv, total radioactivity. The method, then: Dynamic PET scans were performed on a small animal PET/MR scanner based on previously reported protocol. Briefly, female Wistar rats (208-231 g) were anaesthetized with a 5% isoflurane/ oxygen mixture before being maintained at 1-2% isoflurane/1 L/minute throughout the experiment. Rats tail veins were cannulated before being placed in the imaging cell (Bruker Biospin) which was then placed into the scanner; temperature and respiration were monitored throughout the scanning via a physiological monitoring system (SA Instruments, Stony Brook, NY, USA). Rats were injected with [^18F]AlF-3p-C-NETA-TATE (5.5-18.5 MBq, apparent molar activity 22 ± 8 GBq/μmol) at the start of the PET acquisition in presence or absence of octreotide acetate (2.5 mg/kg co-injection with radiopharmaceutical; blocking scans were performed the following day in the same animals). 75 min scans were carried out with the pituitary to kidneys in the PET FOV, during which respiration-gated 3D spin-echo MRI (TurboRARE sequence, TR = 500 mseconds (ms), TE = 18.8 ms, RARE factor = 8, FOV 14x6x6 cm, isotropic resolution of 0.5 mm) images were acquired with a quadrature radio-frequency resonator (transmit/receive, 86 mm internal diameter, Bruker Biospin). PET and MRI scans were then repeated at 100-120 minutes with the animal in the same position. Dynamic PET data were divided into timeframes (4×15 s, 1×240 s, 7×600 s) with corrections for decay, randoms, scatter and deadtime and then reconstructed using an MLEM algorithm with 24 iterations and an isotropic voxel size of 0.5 mm. PET images were normalized to injected activity and animal weight to give standardized uptake values (SUV), and selected organs were outlined to create volumes of interest after coregistration with MR images of which SUVmean values are reported; a circular VOI was placed over the splenic division of the pancreas (as visualised via tracer uptake and mapped to the blocked scan) to determine pancreatic uptake. All image analysis was carried out using the PFUSIT module of PMOD (v 4.004, PMOD Technologies Ltd., Zurich, Switzerland). Quantitative data are expressed as mean ± standard error of the mean (SEM).

In series [2] the target is T2, SSTR2 (Rattus norvegicus, UniProt P30680).
T2 construct: from tissue; host or cells: female Wistar rats in vivo (adrenals, pituitary, pancreas)
T2 sequence (P30680 whole entry): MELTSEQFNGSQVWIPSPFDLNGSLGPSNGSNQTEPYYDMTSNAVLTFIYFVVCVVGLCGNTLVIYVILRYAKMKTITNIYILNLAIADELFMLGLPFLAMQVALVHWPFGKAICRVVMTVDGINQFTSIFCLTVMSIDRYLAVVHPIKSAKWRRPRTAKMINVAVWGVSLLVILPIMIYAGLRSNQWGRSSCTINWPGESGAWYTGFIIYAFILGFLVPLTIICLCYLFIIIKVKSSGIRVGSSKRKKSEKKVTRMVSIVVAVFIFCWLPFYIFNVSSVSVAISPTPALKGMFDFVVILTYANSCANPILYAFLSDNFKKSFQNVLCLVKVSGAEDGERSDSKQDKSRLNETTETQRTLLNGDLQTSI
Details: method as in PMID 31997090. Particulars: naïve rats, 2 h p.i.; cited from earlier work.

For the molecule `C[C@@H](O)[C@H](NC(=O)[C@@H]1CSSC[C@H](NC(=O)[C@@H](Cc2ccccc2)NC(=O)CCC(=O)Nc2ccc(CCCC(CN3CCN(CC(=O)O)CCN(CC(=O)O)CC3)N(CC(=O)O)CC(=O)O)cc2)C(=O)N[C@@H](Cc2ccc(O)cc2)C(=O)N[C@H](Cc2c[nH]c3ccccc23)C(=O)N[C@@H](CCCCN)C(=O)N[C@@H]([C@@H](C)O)C(=O)N1)C(=O)O` (stereo partly drawn) [[^18F]AlF-3p-C-NETA-TATE], the SUV at 1.25 h amounted to 0.24 ± 0.03 SUV in series [1] (2.5 mg/kg, SUV adrenals); 0.34 ± 0.2 SUV in series [1] (2.5 mg/kg, SUV pancreas); 0.2 ± 0.04 SUV in series [1] (2.5 mg/kg, SUV pituitary); 1.2 ± 0.59 SUV in series [1] (SUV adrenals); 7.78 ± 4.26 SUV in series [1] (SUV pancreas); 0.93 ± 0.34 SUV in series [1] (SUV pituitary). For the same molecule, the SUV at 2 h was 0.18 ± 0.04 SUV in series [1] (2.5 mg/kg, SUV adrenals); 0.31 ± 0.07 SUV in series [1] (2.5 mg/kg, SUV pancreas); 0.21 ± 0.06 SUV in series [1] (2.5 mg/kg, SUV pituitary); 1.22 ± 0.65 SUV in series [1] (SUV adrenals); less than 0.6 SUV in series [1] (SUV blood and non-SSTR2 expressing organs); 0.43 ± 0.25 SUV in series [1] (SUV bone uptake in the spine). Further, the SUV at 2 h in series [1] (SUV pancreas) was 8.35 ± 5.07 SUV; in series [1] (SUV pituitary), 0.93 ± 0.36 SUV.

For [^18F]AlF-NOTA-Octreotide, in series [2], the “SUV bone uptake in the spine” value is 0.45 ± 0.03.
